± gives the uncertainty stated by the source.
Assay: self-splicing fitness, log relative to wild type (ln ratio); higher = more splicing; Tetrahymena group I intron in knt gene, E. coli kanamycin selection, DiMSum; sequences stand for … in CUCUCU…GGAGGGAAAAGUUAUCAGGCAUGCACCUGGUAGCUAGUCUUUAAACCAAUAGAUUGCAUCGGUUUAAAAGGCAAGACCGUCAAAUUGCGGGAAAGGGGUCAACAGCCGUUCAGUACCAAGUCUCAGGGGAAACUUUGAGAUGGCCUUGCAAAGGGUAUGGUAAUAAGCUGACGGACAUGGUCCUAACCACGCAGCCAAGUCCUAAGUCAACAGAUCUUCUGUUGAUAUGGAUGCAGUUCACAGACUAAAUGUCGGUCGGGGAAGAUGUAUUCUUCUCAUAAGAUAUAGUCGGACCUCUCCUUAAUGGGAGCUAGCGGAUGAAGUGAUGCAACACUGGAGCCGCUGGGAACUAAUUUGUAUGCGAAAGUAUAUUGAUUAGUUUUGGAGUACUCGUGGUCG
How it was run: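 Fitness was computed with DiMSum as the error-weighted combination of replicate fold changes, kanamycin versus none, each normalised to wild type. The library randomised all eight intron nucleotides of the P1ex region, with the intron placed in the knt kanamycin-resistance gene on pET-22b(+) in E. coli BL21(DE3). Six replicate transformations were grown overnight at 37°C or 30°C on LB agar with or without 25 μg/mL kanamycin, plus 100 μg/mL carbenicillin, 50 μM IPTG and 0.2% rhamnose. Pooled colonies were amplicon-sequenced on an Illumina HiSeq 2500.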

Sequence	self-splicing fitness (ln) (30 °C)	self-splicing fitness (ln) (37 °C)
AAUGAGCAAUAUUACGUUAU	-4.01 ± 0.21	-3.73 ± 0.24
UUUCAGCAAUAUUACGCGUG	-1.02 ± 0.082	-0.508 ± 0.094
GCGUAGCAAUAUUACGGCAC	-0.32 ± 0.17	-0.367 ± 0.22
UAUCAGCAAUAUUACGAUUG	-0.748 ± 0.087	0.588 ± 0.1
CCUAAGCAAUAUUACGAAUU	-3.89 ± 0.22	-1.79 ± 0.21
AUCCAGCAAUAUUACGCUGU	-2.12 ± 0.14	-2.02 ± 0.14
AUUCAGCAAUAUUACGCCAC	–	-2.32 ± 0.42
GUCCAGCAAUAUUACGGACU	-3.74 ± 0.29	-3.05 ± 0.4
GAUGAGCAAUAUUACGCGGU	-3.33 ± 0.28	-2.77 ± 0.34
UAUCAGCAAUAUUACGGAGA	-0.973 ± 0.085	-0.0429 ± 0.1
AUUUAGCAAUAUUACGCGAC	-2.16 ± 0.27	-2.87 ± 0.47
GCAUAGCAAUAUUACGGCCA	-1.05 ± 0.19	-1.17 ± 0.21
GAGAAGCAAUAUUACGUGGC	-3.59 ± 0.17	-0.933 ± 0.11
CCGUAGCAAUAUUACGGGGU	-3.96 ± 0.24	-1.71 ± 0.2
AACUAGCAAUAUUACGACUA	-0.192 ± 0.2	-1.24 ± 0.15
UUCCAGCAAUAUUACGCCAC	–	-1.86 ± 0.34
AUUUAGCAAUAUUACGUUAU	-2.2 ± 0.2	-1.95 ± 0.24
AGGGAGCAAUAUUACGCCAC	-2.47 ± 0.49	–
CGCGAGCAAUAUUACGAGCG	-3.55 ± 0.28	-2.37 ± 0.3
UCGGAGCAAUAUUACGCUGA	-2.56 ± 0.29	-2.16 ± 0.2
CUAUAGCAAUAUUACGAGAC	-1.7 ± 0.37	–
UGAAAGCAAUAUUACGUUAA	-1.45 ± 0.089	-0.938 ± 0.09
UCUAAGCAAUAUUACGGAUC	-3.37 ± 0.37	-3.24 ± 0.37
AACAAGCAAUAUUACGCAUA	-1.8 ± 0.12	-1.04 ± 0.13
CUCGAGCAAUAUUACGAAUA	-3.12 ± 0.3	-2.59 ± 0.28
AGGCAGCAAUAUUACGGCGG	-1.62 ± 0.094	-1.11 ± 0.13

Sequence	self-splicing fitness (ln) (30 °C)	self-splicing fitness (ln) (37 °C)
GGGAAGCAAUAUUACGAAGU	-2.43 ± 0.29	-1.83 ± 0.35
CUUUAGCAAUAUUACGCGCG	-1.05 ± 0.14	-0.656 ± 0.17
AUGUAGCAAUAUUACGUUGG	-2.21 ± 0.12	-1.8 ± 0.17
CCGGAGCAAUAUUACGCAAC	-1.66 ± 0.4	-2.92 ± 0.47
CUACAGCAAUAUUACGGCAA	-3.24 ± 0.24	-2.79 ± 0.23
GCAUAGCAAUAUUACGCUAU	-4.09 ± 0.28	-1.97 ± 0.25
GGAAAGCAAUAUUACGUCAC	-2.13 ± 0.22	-1.81 ± 0.32
GUGCAGCAAUAUUACGUAAA	-0.491 ± 0.084	-1.05 ± 0.11
AAACAGCAAUAUUACGACUG	-1.64 ± 0.064	-0.795 ± 0.071
GGAAAGCAAUAUUACGCGAA	-1.66 ± 0.17	-1.19 ± 0.13
ACGGAGCAAUAUUACGGUGA	-3.69 ± 0.23	-1.55 ± 0.21
GCCUAGCAAUAUUACGUAAA	-1.1 ± 0.076	-0.594 ± 0.093
UGGAAGCAAUAUUACGCGCA	-0.534 ± 0.13	0.365 ± 0.13
CGCUAGCAAUAUUACGUUUU	-3.8 ± 0.16	-1.68 ± 0.13
CAGGAGCAAUAUUACGCCCG	-2.75 ± 0.42	-0.874 ± 0.37
UGAAAGCAAUAUUACGAAGA	-2.23 ± 0.3	-0.283 ± 0.19
ACCCAGCAAUAUUACGUACU	-1.12 ± 0.059	-0.926 ± 0.08
AACCAGCAAUAUUACGCAAU	-1.86 ± 0.081	-0.25 ± 0.098
AUAUAGCAAUAUUACGUUAC	-3.05 ± 0.29	-2.33 ± 0.24
AUAAAGCAAUAUUACGGCGU	0.632 ± 0.068	0.894 ± 0.1
GCCAAGCAAUAUUACGGACU	-1.16 ± 0.077	-0.389 ± 0.1
AAUUAGCAAUAUUACGCUUC	-2.91 ± 0.39	-3.71 ± 0.39
CGCUAGCAAUAUUACGUAGG	-1.4 ± 0.058	-0.925 ± 0.081
CUGAAGCAAUAUUACGACCU	-3.63 ± 0.4	-3.1 ± 0.18
GCCAAGCAAUAUUACGAUAC	-2.45 ± 0.17	-0.963 ± 0.14
CAAAAGCAAUAUUACGGUCG	0.0608 ± 0.056	-0.107 ± 0.063

Sequence	self-splicing fitness (ln) (30 °C)	self-splicing fitness (ln) (37 °C)
ACUGAGCAAUAUUACGAGCC	-3.59 ± 0.4	–
GGUAAGCAAUAUUACGGGGU	–	-2.57 ± 0.25
UAUGAGCAAUAUUACGGCCG	-1.33 ± 0.36	-1.01 ± 0.35
AACUAGCAAUAUUACGUACA	-1.19 ± 0.099	-0.373 ± 0.13
GACGAGCAAUAUUACGGGCG	-3.8 ± 0.27	-1.08 ± 0.17
GCCCAGCAAUAUUACGAAGC	-2.36 ± 0.19	-0.479 ± 0.2
GGAAAGCAAUAUUACGCUGA	-2.94 ± 0.22	-1.9 ± 0.16
GCAAAGCAAUAUUACGAUGG	-1.02 ± 0.099	-0.442 ± 0.13
CCCGAGCAAUAUUACGUAUG	-4.9 ± 0.45	-2 ± 0.19
AACGAGCAAUAUUACGGUAC	–	-1.34 ± 0.22
UCAUAGCAAUAUUACGUCUA	-2.05 ± 0.19	-0.601 ± 0.14
ACGUAGCAAUAUUACGCCUG	-1.29 ± 0.077	0.00322 ± 0.11
AAUGAGCAAUAUUACGCUCA	-1.91 ± 0.42	-0.648 ± 0.38
GCUCAGCAAUAUUACGUAGG	0.139 ± 0.052	0.32 ± 0.076
AAGUAGCAAUAUUACGGUGA	-1.03 ± 0.11	-0.771 ± 0.14
CUCGAGCAAUAUUACGAGUU	–	-2.42 ± 0.24
GUCGAGCAAUAUUACGAUAA	-1.44 ± 0.26	-0.0833 ± 0.2
GACUAGCAAUAUUACGGUGU	-1.84 ± 0.098	-0.76 ± 0.1
UACUAGCAAUAUUACGGGCG	-0.0495 ± 0.11	0.375 ± 0.14
AUUUAGCAAUAUUACGGUAG	-3.72 ± 0.27	-2.03 ± 0.21
CCUCAGCAAUAUUACGAUGC	-4.19 ± 0.24	-2.15 ± 0.3
CGCGAGCAAUAUUACGGUGA	-2.81 ± 0.14	-1.7 ± 0.11
GUUCAGCAAUAUUACGGAUC	-1.33 ± 0.098	-0.366 ± 0.1
AAGAAGCAAUAUUACGAUUU	-0.181 ± 0.065	0.764 ± 0.1
ACGCAGCAAUAUUACGUAUG	-4.32 ± 0.22	-2.54 ± 0.16
ACGGAGCAAUAUUACGAGCG	-2.76 ± 0.28	-1.59 ± 0.2
